{"source": "paper PMC4452782", "key": {"[1]": {"target": "GEC1/GABARAPL1 (GL1) (human (endogenous in MDA-MB-436 and MCF-7)) (UniProt Q9H0R8)", "sequence (Q9H0R8 whole entry)": "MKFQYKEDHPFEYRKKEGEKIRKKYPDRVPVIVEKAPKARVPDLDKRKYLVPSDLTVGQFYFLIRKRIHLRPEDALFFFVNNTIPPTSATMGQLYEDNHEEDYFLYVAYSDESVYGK", "assay": "proximity ligation; P-LISA (Duolink In Situ Detection Reagents Red) on MDA-MB-436 cells fixed with 4% paraformaldehyde and permeabilised with cold methanol; endogenous proteins; mouse anti-SQSTM1 or anti-NIX with rabbit anti-LC3B or anti-GL1; dots per cell counted with BlobFinder; untreated cells, also after Rapa (10 uM, 5 h), Rot (50 uM, 24 h) or CCCP (100 uM, 24 h)"}, "[2]": {"target": "LC3B (human (endogenous in MDA-MB-436)) (UniProt Q9GZQ8)", "assay": "proximity ligation; P-LISA (Duolink In Situ Detection Reagents Red) on MDA-MB-436 cells fixed with 4% paraformaldehyde and permeabilised with cold methanol; endogenous proteins; mouse anti-SQSTM1 or anti-NIX with rabbit anti-LC3B or anti-GL1; dots per cell counted with BlobFinder; untreated cells, also after Rapa (10 uM, 5 h), Rot (50 uM, 24 h) or CCCP (100 uM, 24 h)"}}}
{"substance": "NIX/BNIP3L, O60238 1-219 (natural protein; other documents disagree on this pair)", "values": [{"measurement": "P-LISA dots per cell", "setting": "[1]", "result": 11.6, "unit": "dots/cell"}, {"measurement": "P-LISA dots per cell", "setting": "[2]", "result": 18.9, "unit": "dots/cell"}]}
